Experimental data from PMC1260013 (BMC Biochemistry, 2005).
pKi: −log10 of the molar value.

How the values were obtained:
[1] = biological target: M. tb ICD-2 (Mycobacterium tuberculosis, UniProt O53611); experiment: biochemical
[2] = test system: O=C(O)CC(C(=O)O)C(O)C(=O)O; experiment: purified protein; conditions: pH 7.5; 25.0 °C
[3] = test system: NC(=O)c1ccc[n+]([C@@H]2O[C@H](COP(=O)(O)OP(=O)(O)OC[C@H]3O[C@@H](n4cnc5c(N)ncnc54)[C@H](OP(=O)(O)O)[C@@H]3O)[C@@H](O)[C@H]2O)c1; experiment: purified protein; conditions: pH 7.5; 25.0 °C; varied: cofactor

Chain of M. tb ICD-2 (O53611 whole entry): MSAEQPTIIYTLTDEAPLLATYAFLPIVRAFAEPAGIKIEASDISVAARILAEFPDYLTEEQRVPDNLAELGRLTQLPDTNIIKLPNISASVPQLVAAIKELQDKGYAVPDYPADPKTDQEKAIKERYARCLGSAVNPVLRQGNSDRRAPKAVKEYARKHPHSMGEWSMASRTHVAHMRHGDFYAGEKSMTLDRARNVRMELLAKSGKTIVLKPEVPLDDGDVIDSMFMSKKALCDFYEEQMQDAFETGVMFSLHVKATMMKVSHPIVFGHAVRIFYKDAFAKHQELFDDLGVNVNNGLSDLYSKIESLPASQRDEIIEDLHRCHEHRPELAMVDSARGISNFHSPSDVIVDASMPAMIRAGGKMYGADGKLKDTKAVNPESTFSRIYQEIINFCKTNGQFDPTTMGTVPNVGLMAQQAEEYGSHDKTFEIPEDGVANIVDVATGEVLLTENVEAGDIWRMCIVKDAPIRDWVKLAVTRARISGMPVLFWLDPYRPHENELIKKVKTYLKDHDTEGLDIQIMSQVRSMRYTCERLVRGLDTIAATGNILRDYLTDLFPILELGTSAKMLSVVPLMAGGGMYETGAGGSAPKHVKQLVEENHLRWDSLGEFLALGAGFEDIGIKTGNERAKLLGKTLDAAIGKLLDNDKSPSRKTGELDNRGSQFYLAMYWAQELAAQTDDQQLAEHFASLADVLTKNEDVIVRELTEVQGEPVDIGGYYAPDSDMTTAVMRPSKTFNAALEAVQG

Row | Compound | pKi [1] | Km [2] [µM] | Vmax [2] [μM NADPH/min] | Km [3] [µM] | Vmax [3] [μM NADPH/min]
1 | NC(=O)C1=CN([C@@H]2O[C@H](COP(=O)(O)OP(=O)(O)OC[C@H]3O[C@@H](n4cnc5c(N)ncnc54)[C@H](OP(=O)(O)O)[C@@H]3O)[C@@H](O)[C@H]2O)C=CC1 [NADPH] | 5.34 |  |  |  | 
2 | M. tb ICD-1 (Mycobacterium tuberculosis H37Rv) |  | 10 ± 5 | 380 | 125 ± 5 | 400
